Laboratory results reported in publication PMC12232725.

Experiments:
[1] = target: T1, N protein (unphosphorylated, lambda-phosphatase treated) (SARS-CoV-2 (isolate Wuhan-Hu-1), UniProt P0DTC9 1-419); assay: MST; apparent; Hill nH = 1.7 +/- 0.4; conditions: protein: recombinant; tags: His6-MBP tag cleaved (3C); linker remnant possible; chain copies: 2; stem loop
[2] = target: biotin-AviTag-cGASCD (human, UniProt Q8N884 158-522); assay: BLI; N protein first adds signal, then accelerates dissociation; conditions: protein: recombinant; tags: AviTag, biotinylated; blunt
[3] = target: cGAS (human, UniProt Q8N884 1-522)
[4] = target: T1, N protein (unphosphorylated, …); assay: MST; apparent; Hill nH = 1.6 +/- 0.1; conditions: protein: recombinant; tags: His6-MBP tag cleaved (3C); linker remnant possible; chain copies: 2; label: Cy5 at 5' end of forward strand; blunt

## GAUCUCUUGUAGAUCUGUUCUCUAAACGAACUUUAAAAUCUGUGUGGCUG (ssRNA) [50-nt RNA-Cy5]
[1]
  Kd: 3 ± 0.4 nM

B1: 45-bp DNA (ISD) (dsDNA)
DNA 1: TACAGATCTACTAGTGATCTATGACTGATCTGTACATGATCTACA
DNA 2: TGTAGATCATGTACAGATCAGTCATAGATCACTAGTAGATCTGTA
[2]
  binding result: binds

B2: 50-bp DNA-Cy5 (dsDNA)
DNA 1: GATCTCTTGTAGATCTGTTCTCTAAACGAACTTTAAAATCTGTGTGGCTG
DNA 2: CAGCCACACAGATTTTAAAGTTCGTTTAGAGAACAGATCTACAAGAGATC
[3]
  binding result: binds
[4]
  Kd: 6.3 ± 0.3 nM

B3: 50-bp DNA (label-free) (dsDNA)
DNA 1: GATCTCTTGTAGATCTGTTCTCTAAACGAACTTTAAAATCTGTGTGGCTG
DNA 2: CAGCCACACAGATTTTAAAGTTCGTTTAGAGAACAGATCTACAAGAGATC
[3]
  binding result: binds
